Data published in publication PMC9120461, “Structural insights into the mechanism of pancreatic KATP channel regulation by nucleotides” (Nature Communications, 2022).

Legend:
[1] = molecular target: T1, SUR1 from Mesocricetus auratus (maSUR1), as the SUR1 part of H175K_(cryo-EM) (Mesocricetus auratus, UniProt A0A1U7R319 1-1582); experiment: cryo-EM structure; purified H175K_(cryo-EM) fusion protein (13.5 uM octamer) in TBS (20 mM Tris-HCl pH 7.5, 150 mM NaCl) with 0.1% digitonin, with 5 mM MgCl2, 0.5 mM ADP, 0.5 mM NN414 and 10 uM PI(4,5)P2diC8; closed and pre-open states resolved in the same sample; conditions: both partners purified
T1 construct: SUR1 from Mesocricetus auratus (maSUR1); In the assay it stood on one chain with Kir6.2 H175K: its C terminus is joined to the 41-residue linker and the Prescission site; also called SUR1 subunit; source: purified in digitonin (Streptactin 4FF resin, Superose 6 increase)

[2] = molecular target: the molecule itself; experiment: as above

T1 sequence (A0A1U7R319 entry or part of it H175K H175K): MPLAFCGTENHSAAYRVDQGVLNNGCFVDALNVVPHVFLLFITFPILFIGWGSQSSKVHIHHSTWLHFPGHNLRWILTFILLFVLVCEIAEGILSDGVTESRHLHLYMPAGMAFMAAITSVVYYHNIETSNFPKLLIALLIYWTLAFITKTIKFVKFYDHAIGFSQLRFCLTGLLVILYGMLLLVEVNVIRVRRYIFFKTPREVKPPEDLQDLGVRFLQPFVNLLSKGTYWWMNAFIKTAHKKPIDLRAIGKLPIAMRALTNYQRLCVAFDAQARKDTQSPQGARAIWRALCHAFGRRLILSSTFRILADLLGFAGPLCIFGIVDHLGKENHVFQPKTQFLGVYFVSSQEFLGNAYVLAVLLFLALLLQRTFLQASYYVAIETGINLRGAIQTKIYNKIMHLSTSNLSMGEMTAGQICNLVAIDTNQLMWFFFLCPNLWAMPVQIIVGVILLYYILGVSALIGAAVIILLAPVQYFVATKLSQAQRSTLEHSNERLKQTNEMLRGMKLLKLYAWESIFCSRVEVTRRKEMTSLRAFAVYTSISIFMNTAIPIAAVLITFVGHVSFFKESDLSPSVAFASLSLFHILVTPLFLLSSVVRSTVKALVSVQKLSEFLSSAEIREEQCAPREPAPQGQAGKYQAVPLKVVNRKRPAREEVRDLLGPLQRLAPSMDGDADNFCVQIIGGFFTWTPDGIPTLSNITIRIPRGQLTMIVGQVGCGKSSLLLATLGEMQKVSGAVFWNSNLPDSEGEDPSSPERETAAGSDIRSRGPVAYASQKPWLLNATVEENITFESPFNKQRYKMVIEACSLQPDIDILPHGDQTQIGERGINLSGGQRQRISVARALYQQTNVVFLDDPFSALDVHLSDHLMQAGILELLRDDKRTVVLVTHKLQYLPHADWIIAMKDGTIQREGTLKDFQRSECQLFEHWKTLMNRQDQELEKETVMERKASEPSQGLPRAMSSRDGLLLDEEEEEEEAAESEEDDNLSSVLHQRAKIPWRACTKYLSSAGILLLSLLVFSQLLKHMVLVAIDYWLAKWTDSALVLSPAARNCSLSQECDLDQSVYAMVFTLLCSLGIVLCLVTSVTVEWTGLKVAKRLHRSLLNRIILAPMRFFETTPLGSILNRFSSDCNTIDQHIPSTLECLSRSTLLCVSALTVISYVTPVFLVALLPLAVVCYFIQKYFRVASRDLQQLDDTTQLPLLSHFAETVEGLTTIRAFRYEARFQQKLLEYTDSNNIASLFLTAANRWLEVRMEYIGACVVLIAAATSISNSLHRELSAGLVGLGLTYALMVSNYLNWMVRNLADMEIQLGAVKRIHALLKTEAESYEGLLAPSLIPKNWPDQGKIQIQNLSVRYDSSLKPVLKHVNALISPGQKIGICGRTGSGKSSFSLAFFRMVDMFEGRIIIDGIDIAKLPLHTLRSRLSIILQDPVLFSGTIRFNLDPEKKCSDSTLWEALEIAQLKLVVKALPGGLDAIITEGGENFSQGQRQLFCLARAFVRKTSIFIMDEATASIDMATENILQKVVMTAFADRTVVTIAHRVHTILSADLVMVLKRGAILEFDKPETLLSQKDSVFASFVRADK

B1: Kir6.2 from Mus musculus (mmKir6.2) H175K mutant, as the Kir6.2 part of H175K_(cryo-EM) (natural protein, UniProt Q61743 2-390, looked up)
chain: LSRKGIIPEEYVLTRLAEDPAEPRYRTRERRARFVSKKGNCNVAHKNIREQGRFLQDVFTTLVDLKWPHTLLIFTMSFLCSWLLFAMVWWLIAFAHGDLAPGEGTNVPCVTSIHSFSSAFLFSIEVQVTIGFGGRMVTEECPLAILILIVQNIVGLMINAIMLGCIFMKTAQAKRRAETLIFSKHAVITLRHGRLCFMLRVGDLRKSMIISATIHMQVVRKTTSPEGEVVPLHQVDIPMENGVGGNGIFLVAPLIIYHVIDSNSPLYDLAPSDLHHHQDLEIIVILEGVVETTGITTQARTSYLADEILWGQRFVPIVAEEDGRYSVDYSKFGNTIKVPTPLCTARQLDEDRSLLDALTLASSRGPLRKRSVAVAKAKPKFSISPDSLS
notes: Kir6.2 from Mus musculus (mmKir6.2), first Met removed, H175K mutant; In the assay it stood on one chain with SUR1: its N terminus is joined to the Prescission site and the 41-residue linker after SUR1; source: purified in digitonin (Streptactin 4FF resin, Superose 6 increase)
B1: binds [1]; binds [2].
